For the assay, the target named is T1, human IL-10 receptor (human) (UniProt Q13651).
T1 sequence 1: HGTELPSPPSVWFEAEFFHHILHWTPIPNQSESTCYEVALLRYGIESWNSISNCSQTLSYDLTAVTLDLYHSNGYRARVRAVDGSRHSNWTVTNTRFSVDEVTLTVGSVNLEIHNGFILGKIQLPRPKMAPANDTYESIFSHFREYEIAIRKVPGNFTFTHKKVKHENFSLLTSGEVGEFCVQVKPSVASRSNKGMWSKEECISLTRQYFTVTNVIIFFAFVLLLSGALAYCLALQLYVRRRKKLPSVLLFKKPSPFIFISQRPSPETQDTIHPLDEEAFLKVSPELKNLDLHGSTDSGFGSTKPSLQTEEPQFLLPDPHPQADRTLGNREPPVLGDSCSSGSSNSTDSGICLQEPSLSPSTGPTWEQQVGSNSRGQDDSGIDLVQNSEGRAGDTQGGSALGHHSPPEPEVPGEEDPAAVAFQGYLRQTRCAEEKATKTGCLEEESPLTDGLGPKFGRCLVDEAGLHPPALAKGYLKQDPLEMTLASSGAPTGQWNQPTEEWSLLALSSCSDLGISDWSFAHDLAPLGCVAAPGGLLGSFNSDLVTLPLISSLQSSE
T1 sequence 2: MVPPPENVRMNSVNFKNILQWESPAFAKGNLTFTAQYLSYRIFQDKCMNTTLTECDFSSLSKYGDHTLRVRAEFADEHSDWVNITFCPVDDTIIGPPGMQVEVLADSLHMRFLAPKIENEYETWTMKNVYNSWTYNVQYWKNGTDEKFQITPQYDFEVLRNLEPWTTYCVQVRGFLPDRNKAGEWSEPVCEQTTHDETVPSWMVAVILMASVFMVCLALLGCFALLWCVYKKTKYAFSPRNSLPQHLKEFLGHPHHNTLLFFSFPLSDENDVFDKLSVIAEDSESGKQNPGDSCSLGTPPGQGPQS

recombinant bovine IL-10, sequence (P43480 19-178): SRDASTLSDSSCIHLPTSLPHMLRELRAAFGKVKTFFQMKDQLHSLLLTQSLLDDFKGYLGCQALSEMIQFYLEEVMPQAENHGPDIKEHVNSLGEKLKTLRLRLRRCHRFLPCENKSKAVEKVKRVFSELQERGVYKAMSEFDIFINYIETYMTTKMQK

The substance “recombinant bovine IL-10 (from UniProt P43480 19-178) (ligand)” gave a CD83 expression by LPS stimulated DCs, average percentage compared to cells only stimulated with LPS; bovine IL-10 0.25-20 ng/ml (130.5 at 0.25 ng/ml falling to 38.2 at 20 ng/ml) (% of cells only stimulated with LPS) of 130; a CD86 expression by LPS stimulated DCs, average percentage compared to cells only stimulated with LPS; bovine IL-10 0.25-20 ng/ml (106.3 at 0.25 ng/ml falling to 51.0 at 20 ng/ml) (% of cells only stimulated with LPS) of 106; an IL-1β production by LPS stimulated monocytes with 10 ng/ml bovine IL-10, average percentage compared to cells only stimulated with LPS (% of cells only stimulated with LPS) of 30.3; an IL-12 production by LPS stimulated DCs, average percentage compared to cells only stimulated with LPS; bovine IL-10 0.25-20 ng/ml (102.9 at 0.25 ng/ml falling to 1.5 at 20 ng/ml) (% of cells only stimulated with LPS) of 103. Further, the TNF-α production by LPS stimulated DCs, average percentage compared to cells only stimulated with LPS; bovine IL-10 0.25-20 ng/ml (143.9 at 0.25 ng/ml falling to 0.9 at 20 ng/ml) (% of cells only stimulated with LPS) is 144 and the TNF-α production by LPS stimulated monocytes with 10 ng/ml bovine IL-10, average percentage compared to cells only stimulated with LPS (% of cells only stimulated with LPS) was determined as 14.2.
